# From patent publication US12583913B2, “Antibody specific to Staphylococcus aureus, therapeutic method and detection method using same” (priority 2019, dated 2026)
# Assays:
# [1] = test system: GMA-2105; experiment: Solid phase competitive inhibition ELISA with variant staphylocoagulase peptides; format: binding; details: peptide incubated with GMA-2105 in solution overnight at 4 degrees C
# From the text: There are reported strain specific sequence differences at residue positions 8 and 9 of staphylocoagulase (SEQ ID. No.: 2). […] Wantabe, et al., Genetic Diversity of Staphylocoagulase Genes (coa): Insight into the evolution of variable chromosomal virulence factors in Staphylococcus aureus. PLoS ONE 2009; 4(5): 1-11, incorporated herein by reference in its entirety. […] 9 (“Mutated Peptide Ala 8”), position 9 of SEQ ID NO. 9 (“Mutated Peptide Ala 9”), and position 8 and 9 of SEQ ID NO.: 9 (“Mutated Peptide Ala 8 & 9”) (see FIG. 13). We measured the binding of each synthetic peptide (Mutated Peptide Ala 8, Mutated Peptide Ala 9, and Mutated Peptide Ala 8 & 9) to GMA-2105 in solution.
# We tested binding of Mutated Peptide Ala 8, Mutated Peptide Ala 9, and Mutated Peptide Ala 8 & 9 to GMA-2105 in a solid phase competitive inhibition assay. GMA-2105 was incubated with increasing concentrations of each of Mutated Peptide Ala 8, Mutated Peptide Ala 9, and Mutated Peptide Ala 8 & 9 (referred to hereafter as “GMA-2105—Mutated Peptide samples”) in solution overnight at 4 degrees C. The incubation was followed by transfer of the GMA-2105—Mutated Peptide samples to wells coated with the non-mutated peptide, […] (SEQ ID. No.: 9) and blocked with 0.1% BSA PBS. After a 30-minute incubation, wells were washed with PBS containing 0.05% TWEEN 20, followed by addition of goat anti-mouse secondary antibody conjugated to horseradish peroxidase. Substrate ortho-phenylenediamine conversion to product was measured at 490 nm using a spectrophotometer. The negative control as was a purified irrelevant synthetic peptide.
# [2] = test system: staphylocoagulase; experiment: Western blot detection of staphylocoagulase in cultured bacteria supernatants; format: binding; details: supernatants of S. aureus strains COL and MW2 (MRSA)
# From the text: Lanes A, B, and C contain concentrated (10×) supernatants from identically cultured bacteria. Lane A: S. saprophyticus (coagulase negative bacterium control); Lane B: S. aureus strain COL (MRSA); Lane C: S. aureus strain MW2 (MRSA); Lane D: media blank; Lane E: staphylocoagulase peptide conjugated to ovalbumin (SEQ ID NO.: 9).
# [3] = target: T1, staphylocoagulase peptide SC(1-10) […] (SEQ ID NO: 9) (Staphylococcus aureus, UniProt P17855); experiment: Solid-phase ELISA on staphylocoagulase peptide; format: binding, S. aureus
# T1 construct: made in house; host or cells: chemical synthesis
# Protocol: Two additional 50 μg injections (peptide-KLH conjugate in incomplete Freunds adjuvant) were given on days 61 and 111. A serum sample from each mouse was collected on Day 122 and the antibody titer measured by solid-phase Enzyme Linked Immunosorbant Assay (ELISA) using the staphylocoagulase and/or vWbp peptide conjugated to ovalbumin coated on 96-well ELISA plates at 2 ug/ml. Uncoated areas of the wells were blocked with albumin from bovine serum (BSA). The wells were then incubated with dilutions of the mouse serum to test whether the serum contained antibodies to the staphylocoagulase and/or vWbp peptide. Bound antibodies were detected with anti-mouse IgG secondary antibody conjugated to horseradish peroxidase. The plates were then incubated with o-phenylenediamine (OPD) substrate which undergoes a color change in the presence of HRP the intensity of which can be measured using absorption at 490 nm wavelength in a microplate reader. […]
# Purified chimeric GMA-2105 and murine GMA-2105 antibody were tested against staphylocoagulase peptide […] […] Antibody-antigen complex was detected using a goat anti-mouse secondary antibody conjugated to horseradish peroxidase or goat anti-human secondary antibody conjugated to horseradish peroxidase. Substrate ortho-phenylene diamine conversion to product was measured at 490 nm using a spectrophotometer
# [4] = target: SC(1-246)●prothrombin^3Q (Staphylococcus aureus, UniProt P17855); experiment: Inhibition of prothrombin^3Q activation by SC(1-246), S2238 hydrolysis; format: biochemical, S. aureus; details: read-out: affinity of inhibition of prothrombin^3Q activation by SC(1-246); prothrombin 1 nM, SC(1-246) 5.6 nM and 28 nM
# [5] = target: T2, BODIPY-labeled staphylocoagulase SC (S7C) (1-325) (Staphylococcus aureus, UniProt P17855, S33C); experiment: Equilibrium binding of BODIPY-labeled staphylocoagulase, fluorescence titration in solution; parameters: species or system S. aureus
# T2 construct: BODIPY fluorophore (chemical label)
# Protocol: In solution, the antibody bound Ser 7 to Cys mutant of SC(1-325). Binding studies were done using the BODIPY-labeled staphylocoagulase SC (S7C) (1-325) (SEQ ID NO.: 2, positions 1-325 with Cys at position 7). The change of fluorescence upon antibody binding is measured as a function of the unlabeled ligand concentration and fitting the data to the quadratic binding equation gives the dissociation constant (KD), and the stoichiometry (n). Panizzi, et al., Fibrinogen substrate recognition by staphylocoagulase-(pro)thrombin complexes, J. Biol. Chem. 2006; 281:118-95.
# Direct binding of BODIPY-SC(S7C) at 27 nM (●) and 130 nM (∘) probe titrated with GMA-2105 caused fluorescence increase, whereas unlabeled SC(1-246) (triangles) displaced BODIPY-SC(S7C) labeled staphylocoagulase from binding the antibody. Simultaneous fit of all datasets provide the Kd for the unmodified competitor to the antibody.
# Concentrations were: BODIPY-staphylocoagulase (1-325) at 27 nM (●) and 130 nM (∘) titrated with GMA-2105 and unlabeled staphylocoagulase (1-246)(residues 1-246 of SEQ ID No. 2).
# In FIG. 29, BODIPY®-labeled staphylocoagulase fragment (1-325) at 27 nM (●) and 130 nM (∘) titrated with chimeric GMA-2105 in solution in the presence of unlabeled staphylocoagulase fragment (1-246) (▴).
Molecule,inhibition of GMA-2105 binding to wells coated with […] [1],binding to staphylocoagulase peptide in ELISA [3],other results
Mutated Peptide Ala 8 & 9: synthetic peptide with alanine substitutions at positions 8 and 9 of SEQ ID NO. 9 (IVTKDYSAAS),inhibited binding of antibody,–,–
Mutated Peptide Ala 9: synthetic peptide with alanine substitution at position 9 of SEQ ID NO. 9 (IVTKDYSKAS),inhibited binding of antibody,–,–
Mutated Peptide Ala 8: synthetic peptide with alanine substitution at position 8 of SEQ ID NO. 9 (IVTKDYSAES),inhibited binding of antibody,–,–
"GMA-2105 F(ab): fragment antigen-binding fragment of GMA-2105 (antibody, V domains shown) VH: EVKLEESGGGLVQPGGSMKLSCAASGFTFSDAWMDWVRQSPEKGLEWVAEIRTKANNHATYYAESVKGRFTISRDDSKSSVYLQMNSLRAEDTGIYYCTNVYYGNNDVKDYWGQGTSVTVSPAS VL: DIVMTQSQKFMSTSVGDRVSVTCKASQNVDIYVAWYQQKPGQSPKALIYSASYRFSGVPDRFTGSGSGTDFTLSISNVQSEDLAEYFCQQYNNYPYTFGGGTKLEIKRADAAPTVSIFPPSSEGRI",–,capable of binding,"binding of staphylocoagulase in cultured bacteria, Western blot [2]: bind staphylocoagulase"
"GMA-2105: inhibitory mouse anti-staphylocoagulase monoclonal antibody raised against peptide […]; VH SEQ ID NO 6, VL SEQ ID NO 8 (protein) chain 1: EVKLEESGGGLVQPGGSMKLSCAASGFTFSDAWMDWVRQSPEKGLEWVAEIRTKANNHATYYAESVKGRFTISRDDSKSSVYLQMNSLRAEDTGIYYCTNVYYGNNDVKDYWGQGTSVTVSPAS chain 2: DIVMTQSQKFMSTSVGDRVSVTCKASQNVDIYVAWYQQKPGQSPKALIYSASYRFSGVPDRFTGSGSGTDFTLSISNVQSEDLAEYFCQQYNNYPYTFGGGTKLEIKRADAAPTVSIFPPSSEGRI",–,–,Kd [4]: 0.9 nM
"chimeric GMA-2105 (antibody, V domains shown) VH: EVKLEESGGGLVQPGGSMKLSCAASGFTFSDAWMDWVRQSPEKGLEWVAEIRTKANNHATYYAESVKGRFTISRDDSKSSVYLQMNSLRAEDTGIYYCTNVYYGNNDVKDYWGQGTSVTVSPAS VL: DIVMTQSQKFMSTSVGDRVSVTCKASQNVDIYVAWYQQKPGQSPKALIYSASYRFSGVPDRFTGSGSGTDFTLSISNVQSEDLAEYFCQQYNNYPYTFGGGTKLEIKRADAAPTVSIFPPSSEGRI",–,binding,binding characteristics compared with murine GMA-2105 ([5]; FIG. 30): essentially identical; stoichiometry ([5]; chimeric antibody): 2 mol staphylocoagulase/mol chimeric antibody
